Data on 2 compounds can be found in US8329865B2, “Antimicrobially active peptides” (priority 2001, dated 2012).

For data set [1], the system named is human erythrocytes. The data set can be described thus: Hemolytic assay. The format is cell-based. Conditions: 100 μg/ml. As for the experimental part:
Hemolytic assay. The hemolytic activity of DCD peptides was determined on fresh human erythrocytes, which were separated from human EDTA blood using a Ficoll gradient. Isolated erythrocytes were washed three times in 5 ml of PBS (50 mM sodium phosphate buffer, 150 mM NaCl [pH 7.0]) and centrifuged at 1,000×g for 6 min at room temperature. The pellets were resuspended in PBS and further diluted to a concentration of 10^9 human erythrocytes/ml. Hemolytic activity was determined as follows. To the human erythrocyte solution (50 μl), PBS (1 ml) was added, followed by different concentrations of the peptides. The suspension was incubated for 30 min at 37° C. and then centrifuged at 1,000×g for 6 min at 4° C. The supernatant was monitored at 415 nm by using a spectrophotometer (Bio-Rad, Munich, Germany). The hemolytic activity of each peptide was expressed as the percentage of the total hemoglobin release compared to the release after incubation with Millipore water.

Data set [2] can be described thus: CD spectroscopy, secondary structure. The format is physicochemical. As for the experimental part: CD) spectroscopy. Circular dichroism (CD) measurements were performed with a Jasco J-720 CD spectrapolarimeter (Jasco, Tokyo, Japan) to determine the secondary structure of DCD-derived peptides. The data are reported as the average of three to four scans at 50 nm/min with a 1-nm step resolution. The CD spectra of the peptides (50 μM) in 10 mM sodium phosphate buffer (pH 7.0) with different amounts of NaCl (10, 100, and 150 mM) in 0 to 60% (vol/vol) trifluoroethanol (TFE) and in the presence of artificial phospholipid vesicles such as DOPC and DOPC-DOPG (1:1 molar ratio) were recorded at room temperature in the 180- to 260-nm wavelength range. The data are reported as the mean residue ellipticity in units of degrees cm^2 dmol^−1 and plotted versus wavelength. The secondary structural predictions for peptides were carried out by Jasco secondary structure software.

Data set [3] has as its system Escherichia coli, Staphylococcus aureus, Enterococcus faecalis and Candida albicans. The experiment in a line: CFU test (colony-forming units), Example 4. In kind it is cell-based. Conditions: sodium phosphate buffer, 37° C., 3 h, 4 h or overnight. As for the experimental part:
The antimicrobial effect of said peptides was carried out by a CFU test (test for colony-forming units) as described for the defensins by Valore et al., “Human Beta-Defensin-1: An Antimicrobial Peptide of Urogenital Tissues”, J Clin Invest 101, 1633-1642 (1998).
The test of the novel peptides was carried out with Escherichia coli, Staphylococcus aureus, Enterococcus faecalis and Candida albicans. E. coli was incubated in LB medium, E. faecalis and S. aureus in Columbia medium (Difko, BD Heidelberg) and C. albicans in casein hydrolysate medium (Merck, Darmstadt). The amounts of bacteria and yeasts were determined by photometry. The bacterial strains were incubated to an optical density of […] at 600 nm and the yeast was incubated to an optical density of 0.4-0.6 at 450 nm. The amount of the organisms was determined by plating various dilutions as follows: an OD of 1 at 600 nm is equivalent to 8.2×10^9/ml for E. coli, 1.9×10^10/ml for S. aureus and 9.0×10^9/ml for E. faecalis, and an OD of 1 at […] is equivalent to 1.4×10^8/ml for C. albicans.
The cells were washed twice with 10 mM sodium phosphate buffer (pH 7.4) and diluted to 2-3×10^7 cells/ml (E. coli, E. faecalis), 5.7×10^7 cells/ml (S. aureus) or 5×10^5 cells/ml (C. albicans) in phosphate buffer.
The cells were incubated with various amounts of the peptides in 200 μl of sodium phosphate buffer at 37° C. for 3 h, 4 h or overnight (21-24 h). The cells were diluted 1:10 to 1:100 for the bacteria and 1:500 to 1:5000 for the yeast, and 50 μl, 100 μl and 200 μl were plated on appropriate agar plates. The plates were incubated at 37° C. overnight, and the number of colonies was counted. The antimicrobial effect of the peptides has been stated as percentage of killed cells: [1−(cell survival after incubation with the peptide)/(cell survival after control incubation)]×100.

Data set [4] is described as follows: CF release assay with unilamellar liposomes. Conditions: even after the addition of 10 μM peptide; relative to Triton X-100. Here is the method:
FIG. 9. Effect of DCD-derived peptides on membrane permeability. (A) Outer membrane permeability measured by peptide-mediated NPN uptake in E. coli ML-35p. E. coli cells were incubated with 10 μM NPN in the presence of various concentrations of DCD peptides in 5 mM sodium HEPES buffer (pH 7.4). Enhanced uptake due to membrane permeability was measured by an increase in fluorescence intensity (Ex350 and Em460) caused by partition of NPN into the hydrophobic interior of the outer membrane. At time point 0 min, intact E. coli ML-35p cells were added to the peptides. The results are expressed as NPN uptake factor of fluorescence in arbitrary units. All analyses were performed in triplicates. (B) Inner membrane permeability measured as the influx of ONPG in E. coli ML-35p after the addition of DCD peptides. […] The release of ONP by cytoplasmic β-galactosidase was spectrophotometrically monitored at 420 nm. […] All samples were analyzed in triplicates. […] Release was determined 4 min after peptide addition at concentrations of 1 to 10 μM. […] Reaction progress was expressed as the percentage of CF released relative to the total fluorescence released after the addition of Triton X-100 solution at the end of each experiment.
Preparation of liposomes and CF release assay. […] The liposome concentration was determined by phosphorous analysis (Rouser, G. et al. 1970 Lipids 5:494-496). […]

[5] abbreviates: DOPC-DOPG (1:1 molar ratio) liposomes.

In the case of `CC[C@H](C)[C@H](NC(=O)[C@H](CCCCN)NC(=O)[C@H](CCC(=O)O)NC(=O)[C@H](CCCCN)NC(=O)[C@H](CO)NC(=O)[C@H](CCCCN)NC(=O)[C@H](CCCNC(=N)N)NC(=O)[C@H](Cc1ccccc1)NC(=O)[C@H](Cc1ccccc1)NC(=O)[C@H](CC(=O)O)NC(=O)CNC(=O)[C@H](CC(C)C)NC(=O)[C@@H](N)CC(C)C)C(=O)NCC(=O)N[C@@H](CCCCN)C(=O)N[C@@H](CCC(=O)O)C(=O)N[C@@H](Cc1ccccc1)C(=O)N[C@@H](CCCCN)C(=O)N[C@@H](CCCNC(=N)N)C(=O)N[C@H](C(=O)N[C@H](C(=O)N[C@@H](CCC(N)=O)C(=O)N[C@@H](CCCNC(=N)N)C(=O)N[C@H](C(=O)N[C@@H](CCCCN)C(=O)N[C@@H](CC(=O)O)C(=O)N[C@@H](Cc1ccccc1)C(=O)N[C@@H](CC(C)C)C(=O)N[C@@H](CCCNC(=N)N)C(=O)N[C@@H](CC(N)=O)C(=O)N[C@@H](CC(C)C)C(=O)N[C@H](C(=O)N1CCC[C@H]1C(=O)N[C@@H](CCCNC(=N)N)C(=O)N[C@H](C(=O)N[C@@H](CCC(=O)O)C(=O)N[C@@H](CO)C(=O)O)[C@@H](C)O)C(C)C)[C@@H](C)CC)C(C)C)[C@@H](C)CC` [LL-37], in data set [1], the hemolytic activity entry is “up to 2.5%”.

For the compound “DPYAEAASGPNPGSKSHESAQAENCGADPE [DPI, negative control peptide, unrelated scrambled peptide]”, the “Secondary structure, Random coil” value came to 54.8% in data set [2] (10 mM NaP), 42.5% in data set [2] (60% TFE), 51.2% in data set [2] (setting [5]) and 50.3% in data set [2] (dH2O). Further, the “Secondary structure, Turn” value in data set [2] (10 mM NaP) is on record as 19.4%; in data set [2] (60% TFE), 6.0%; in data set [2] (setting [5]), 19.1%; in data set [2] (dH2O), 15.4%. The “Secondary structure, α-Helix” value in data set [2] (10 mM NaP) came to 0.0%; in data set [2] (60% TFE), 9.6%; in data set [2] (setting [5]), 0.0%; in data set [2] (dH2O) it was 0.0%. Moreover, the “Secondary structure, β-Sheet” value in data set [2] (10 mM NaP) is on record as 25.8%; in data set [2] (60% TFE), 42.0%; in data set [2] (setting [5]), 29.7%; in data set [2] (dH2O), 34.3%. For the same compound, in data set [3], the “antimicrobial effect (percentage of killed cells)” value is reported as “no appreciable antimicrobial effect”. For the same compound, in data set [4], the “CF leakage from liposomes made of DOPC and DOPC-DOPG” value is no more than 2%.
